# Reference: PMC7603899 (Journal of molecular biology, 2020)
# B1: Atg11 residues 699-800 (Atg11_(699-800)) (domain or fragment, S. cerevisiae, UniProt Q12527 699-800, looked up)
# chain: NNHQIQELESNVDDLLHQLQLLKEENNRKSMQISEMGKKISDLEVEKTAYRETLTNLNQELARLTNEEQSHRTEIFTLNASFKKQLNDIISQDNEKIEKLTG
# Molecular target: the molecule itself
# Assay: crystal structure
protein,measurement,value
B1,stoichiometry N,2
